According to PMC12420824, “Discovery of a selective alpha-kinase 1 inhibitor for the rare genetic disease ROSAH syndrome” (Nature Communications, 2025):

B1: recombinant HA-His-tagged TIFA, phosphorylated by ALPK1 (natural protein, human, UniProt Q96CG3 1-184, looked up)
chain: MTSFEDADTEETVTCLQMTVYHPGQLQCGIFQSISFNREKLPSSEVVKFGRNSNICHYTFQDKQVSRVQFSLQLFKKFNSSVLSFEIKNMSKKTNLIVDSRELGYLNKMDLPYRCMVRFGEYQFLMEKEDGESLEFFETQFILSPRSLLQENNWPPHRPIPEYGTYSLCSSQSSSPTEMDENES
modifications: phosphorylated by recombinant ALPK1 in the kinase reaction; residues not stated for this experiment
notes: TIFA, human; source: E. coli, purified (Ni column, desalted); phosphorylated in vitro by recombinant ALPK1; not shown: HA, N-terminal, kept
B2: Mouse ALPK1 kinase domain aa. 949-1231 (domain or fragment)
chain: not shown
notes: Used for crystallography in complex with the human N-terminal domain (a complex of two species' forms); also called mALPK1-KD; mouse kinase domain; source: E. coli, purified (Ni column; His-tag cleaved with TEV protease)

How the values were obtained:
[1] = target: the molecule itself; assay: AlphaScreen or HTRF; TR-FRET after kinase reaction (260 nM HA-His-TIFA, 2 nM ALPK1, 6.25 uM ATP, 20 nM ADP-D-heptose, 1.5 h, 27 °C); anti-HA-Eu cryptate and anti-HA-d2 bound to the same TIFA oligomer, 26 °C for 1 h
[2] = target: T1, human ALPK1 N-terminal regulatory domain aa. 1-446 (human, UniProt Q96QP1-1 1-446); assay: crystal structure; mALPK1-KD and ALPK1-ND mixed, complex purified by size exclusion chromatography, 10 mg/ml; hanging drop vapor diffusion, 12% PEG 3350, 0.1 M CBTP pH 8.2; details: both partners purified
T1 construct: The sentence names the His-TEV tag before the mouse kinase domain; it is read here as applying to both constructs; also called ALPK1-ND; human N-terminal regulatory domain; source: E. coli, purified (Ni column; His-tag cleaved with TEV protease)
T1 sequence (Q96QP1 1-446): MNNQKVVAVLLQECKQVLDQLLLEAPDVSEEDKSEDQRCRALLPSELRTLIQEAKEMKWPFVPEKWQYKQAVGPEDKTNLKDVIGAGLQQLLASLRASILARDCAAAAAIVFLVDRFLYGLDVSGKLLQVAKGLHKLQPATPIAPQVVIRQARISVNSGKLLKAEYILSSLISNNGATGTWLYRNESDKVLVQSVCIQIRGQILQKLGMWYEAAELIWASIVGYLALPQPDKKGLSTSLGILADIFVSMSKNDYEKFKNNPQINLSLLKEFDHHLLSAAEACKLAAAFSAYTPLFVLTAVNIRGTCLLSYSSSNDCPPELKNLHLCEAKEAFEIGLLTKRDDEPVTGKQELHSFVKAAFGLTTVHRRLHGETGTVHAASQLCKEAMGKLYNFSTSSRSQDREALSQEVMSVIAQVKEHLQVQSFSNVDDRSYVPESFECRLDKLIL

Binder	binding result [1]	binding result [2]
B1	binds	–
B2	–	binds
